T1: biotinylated recombinant human IL-12Rβ2 (produced in-house) (human, UniProt Q99665 24-622, randomly biotinylated)
T1 construct: also called hIL-12RB2; human IL-12RB2
T1 sequence: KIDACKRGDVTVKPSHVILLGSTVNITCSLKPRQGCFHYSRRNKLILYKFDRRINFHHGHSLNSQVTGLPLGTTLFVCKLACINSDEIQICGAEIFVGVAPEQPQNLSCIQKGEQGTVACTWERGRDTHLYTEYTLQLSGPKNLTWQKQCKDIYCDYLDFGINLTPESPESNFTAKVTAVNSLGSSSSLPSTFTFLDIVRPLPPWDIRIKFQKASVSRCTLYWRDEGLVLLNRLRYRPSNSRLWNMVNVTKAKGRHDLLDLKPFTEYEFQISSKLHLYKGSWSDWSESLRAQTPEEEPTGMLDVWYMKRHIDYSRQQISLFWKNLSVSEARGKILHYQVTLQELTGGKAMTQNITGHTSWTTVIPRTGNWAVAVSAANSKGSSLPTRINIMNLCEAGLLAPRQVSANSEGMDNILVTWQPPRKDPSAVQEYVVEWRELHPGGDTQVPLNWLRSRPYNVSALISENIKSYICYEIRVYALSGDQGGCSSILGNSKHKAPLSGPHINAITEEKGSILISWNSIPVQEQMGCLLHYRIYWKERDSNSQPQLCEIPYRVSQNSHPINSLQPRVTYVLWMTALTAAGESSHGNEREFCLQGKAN

T2: biotinylated recombinant mouse IL-12Rβ2 (produced in-house) (mouse, UniProt P97378 24-637, randomly biotinylated)
T2 construct: also called mIL-12RB2; mouse IL-12RB2
T2 sequence: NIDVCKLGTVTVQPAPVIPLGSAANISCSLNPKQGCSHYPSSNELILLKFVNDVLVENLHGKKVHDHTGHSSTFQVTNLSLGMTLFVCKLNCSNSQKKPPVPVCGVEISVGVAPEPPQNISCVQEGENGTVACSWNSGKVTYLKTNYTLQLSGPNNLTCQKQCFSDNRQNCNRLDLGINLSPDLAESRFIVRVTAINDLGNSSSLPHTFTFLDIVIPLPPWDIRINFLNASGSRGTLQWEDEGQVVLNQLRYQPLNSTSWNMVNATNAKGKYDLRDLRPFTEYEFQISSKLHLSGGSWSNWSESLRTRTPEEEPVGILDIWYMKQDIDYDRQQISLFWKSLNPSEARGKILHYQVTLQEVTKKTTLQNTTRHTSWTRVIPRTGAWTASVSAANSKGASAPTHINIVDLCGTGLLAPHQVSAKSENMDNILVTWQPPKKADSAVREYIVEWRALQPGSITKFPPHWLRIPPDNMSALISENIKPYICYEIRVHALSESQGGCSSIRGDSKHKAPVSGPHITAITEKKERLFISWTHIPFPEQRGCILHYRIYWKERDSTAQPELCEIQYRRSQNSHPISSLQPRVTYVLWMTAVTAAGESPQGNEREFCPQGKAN


How the values were obtained:
[1] = biological target: T1, biotinylated recombinant human IL-12Rβ2 …; experiment: ELISA, periplasmic extract on biotinylated human IL-12Rβ2; control streptavidin-coated blocked wells
[2] = biological target: T2, biotinylated recombinant mouse IL-12Rβ2 …; experiment: ELISA, periplasmic extract on biotinylated mouse IL-12Rβ2; control streptavidin-coated blocked wells

Binder	ELISA binding hIL-12RB2/control [1]	ELISA binding mIL-12RB2/control [2]
anti-IL-12Rβ2 VHH clone 2CRM28 (VHH, Tested as periplasmic extract; CDR3 group 40) VHH: QVQLQESGGGLVQPGGSLRLSCAASGRAWNEYNMGWFRQAPGKEREFVALIWWSSGNTYYADSVKGRFTISRDKVKNTVYLQMNSLKPEDTAVYYCAAGPTFNKYEYWGQGTQVTVSS	1 ratio to control	13.5 ratio to control
anti-IL-12Rβ2 VHH clone 3CRM95 (VHH, Tested as periplasmic extract; CDR3 group 44; also called 20465) VHH: QVQLQESGGGLVQAGDFLRLSCVFSGGTFGDYSMGWFRQAPGKEREFVAAIRWSGDSTQYAEAVKGRFTISRDNAKSTVYLQMSSLKPEDTAVYYCAADPSYYIGPNHTPSRYRDWGQGTQVTVSS	1.41 ratio to control	6.72 ratio to control
anti-IL-12Rβ2 VHH clone 2CAM18 (VHH, Tested as periplasmic extract; CDR3 group 45; also called 20475) VHH: QVQLQESGGGLVQVGDSLKLSCVASGTTFSTHVMAWYRQAPGKQREWVASIDSAGTTNYKDAVKGRFTISRDNVKRTVYLQMNNLKPEDSAVYLCSIPSRNAWGQGTQVTVSS	1.51 ratio to control	3.22 ratio to control
anti-IL-12Rβ2 VHH clone 2CAM39 (VHH, Tested as periplasmic extract; CDR3 group 46; also called 20482) VHH: QVQLQESGGGLVQAGGSLRLSCAASGRTFSTYAMGWFRQAPGKEREFVAAISWSGGSTYYADSVKGRFTISRDNAKNTGYLQMNSLKPEDTAVYVCAADAEDPILYGSSWNNRRKEYDYWGQGTQVTVSS	1 ratio to control	8.02 ratio to control
anti-IL-12Rβ2 VHH clone 2CAM45 (VHH, Tested as periplasmic extract; CDR3 group 47; also called 20485) VHH: QVQLQESGGGLVQAGGSLRLSCAASGFTFDDYAIGWFRQAPGKEREGISCISSSDYGTYYAGSVKGRFTISSDNAKNTVYLQMNSLKPEDTAVYYCAAEAISEYDCLGINYGMDYWGKGTQVTVSS	0.974 ratio to control	10.4 ratio to control
anti-IL-12Rβ2 VHH clone 3CAM1 (VHH, Tested as periplasmic extract; CDR3 group 48) VHH: QVQLQESGGGLVQAGGSLRLSCAASGRTFGSHRMGWFRQAPGQEREFVAAIAWRGGTQYYTDSVKGRFTISRDNANNTVYLQMNSLKPEDAAVYYCVAGEGSSWGDITDPRRYVFWGQGTQVTVSS	1.2 ratio to control	3.3 ratio to control
anti-IL-12Rβ2 VHH clone 3CAM65 (VHH, Tested as periplasmic extract; CDR3 group 49; also called 20513) VHH: QVQLQESGGGLVQAGGSLRLSCAPSGRTFTTYVMGWFRQAPGKEREFVAHISWSGGRTYYADSVKGRFTISRDNAKNTSYLQMNSLKPEDTAVYYCAAARSDAVRIGYAEGYEYWGQGTQVTVSS	1.25 ratio to control	5.98 ratio to control
anti-IL-12Rβ2 VHH clone 2CRMS29 (VHH, Tested as periplasmic extract; CDR3 group 52; also called 20521) VHH: QVQLQESGGGLVQAGGPLRLSCAASGRTFSGSAMGWFRQAPGKEREFVAAITWVGGFTYYADSVKGRFTISRDNAKNTVYLQMNNLSPEDTAVYSCAAQAYHKSGYYYPPLYDYWGQGTQVTVSS	1.05 ratio to control	5.85 ratio to control
anti-IL-12Rβ2 VHH clone 2CAMS29 (VHH, Tested as periplasmic extract; CDR3 group 54; also called 20534) VHH: QVQLQESGGGLVQAGGSLRLSCAASGLTSSTYVIGWFRQAPGKEREFVAAIMLSGGTTIYADSLKGRCTIYKDNAKNTVYLQMNSLKLEDTAVYYCASGLIYRYSDFPRSQKYNFWGQGTQVTVSS	1.06 ratio to control	6.24 ratio to control
anti-IL-12Rβ2 VHH clone 2CAMS52 (VHH, Tested as periplasmic extract; CDR3 group 55; also called 20535) VHH: QVQLQESGGGLVQPGASLRLSCATSGPTLSTYAMGWFRQAPGKEREVVATISWSGGRVTYVDSVKGRFTISRDNAKNTAYLQMNRLRPDDTAVYTCAARESDYGAYDYWGQGTQVTVSS	0.969 ratio to control	6.41 ratio to control

— patent publication US20260209362A1 (VIB VZW, published 2026)
